Molecular target: the molecule itself
Experiment: SEC-MALS

B1: His6-tagged Hvo_0019 (enzyme, Haloferax volcanii)
chain: MSVRDEFDAWAADGRDKGMEDRHWHTAKHALARMPVEEGDTVVDLGTGSGYALRALRDTKGIGRGFGLDGSPEMVQNARAYTDTDDLSFLVGDFDDLPFDDDSVDHVWSMEAFYYAADPHHTLEEIARILKPGGTFYCAVNYYEENVHSHEWQEHISIDMTRWSHAEYREAFRDAGLHVAEQDSIADLDIDIPAATEFPTDDWETREAMVERYRTFGTLLTVGVAP
binding result: binds
